What follows are sequences tested on Saccharomyces cerevisiae (assay: transcriptional activation domain activity (GFP:mCherry ratio, weighted mean of sorted bins, harmonized to initial dataset scale) (arbitrary fluorescence ratio units); higher = stronger transcriptional activation). Details: beta-estradiol 1 µM; induction time 4 h.
How it was run: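 Barcoded protein tiles fused to an estradiol-inducible synthetic transcription factor were integrated at the yeast URA3 locus, in diploids carrying a GFP reporter. Cultures were diluted 1:5 into SC with 1 uM beta-estradiol, held 4 hours at 30 °C, sorted into 8 bins by GFP:mCherry ratio, and barcodes sequenced. Tiles under 50 reads were discarded. Activation activity is the read-weighted mean of bin median fluorescence, averaged across barcodes, then linearly mapped onto the initial dataset scale.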

Sequence | transcriptional activation domain activity
LVREHELLGVIICHLVKSNQSGLTDLEYLLNIVKKIDKYDNLLVHYFPALGAL | 24500
LVRQEDLINIAFHFVAKIPCTWPLPLRKAIADLHHYGGLHVGCTVSALFWYIL | 45300
LVSALWVLNTLHSALMFHLVYHYLILNAFDLFELSQNVWSLPASMIVHLIMAF | 47500
LVSHTVFKIIAICRHYAPPDGYMLAYVLCSSFALASTLWCTLLIICRIVILVQ | 39100
LVTVRTMYRSYVEHGSGIGLTFARLITKDGLVLAISDFVLVFSTFLCVPFVKL | 44300
LVVCCLASQVFIDSILLLPVKIVPPFYRLLSGVVNLVICRLTLFFLGFWWIPV | 59500
LVVFVFLILVVFVFLILVVFVFLILLILAFFVFLILLALLIFLILLVFLVFLV | 30600
LVVKVLNNTAFSPFFTFFIPVLYWSQNQSWSAPTVFWSTAWFLLVCIFSLLKL | 20900
LVVVLAVTKVMLLVLLIISYQILKQLLGIYFKCIHFLIYFFMLPYYGTLLSIL | 47500
LVWLDNWPAGLKLNTELSRFLCLCFMSLTDIWGNLLAPYLPLILRIIGIMGRT | 57200
LVYLARSLFFSLLFKRLYILYFLEVCIWHIFGFFFYLITLCANLVMPLLLCSV | 57600
LVYNDCMYIIFHLHMFEYRYGKQLAKTLLYWTYAHTHFCQLVQVESALRQVIQ | 48100
LVYPIVYLYMDRFFMFVLCSPPSHVLGCWESVTVRTYVGILFPLLICCLFYVL | 41100
LWDANSFLTPMAQGLFKNLKSFEMLGMNCKVIRALILLIHRLWLLTNRLYRYN | 34000
LWELLLNILKENGAKEKCILPCIVDFLPKNLVLVHCIHAYLHFRILVGLQCMT | 33700
LWFFFKGMDGMLHPPCSTWTFFFAKVNLYTWLRTFMKIVFVFMGLLHAIIIFW | 60200
LWGHVVMEFCCWDFVRRASGLDSILLLLVYIFSSLPYFFFVLFVCHIAILLLT | 34500
LWHLVYEPILKGIHEHLLLLDEIIEIFGPDVEKELFRRVYYYLSLLCMHSGTH | 24600
LWLYLAKQLFYEDLGWFFLLLAFYFTWPLIFLLFLIFWMLFVLVYVLFYLVSF | 52300
LWNSYLQSMDDTTGKNSGNYQQVDNDDNMSLLNLPILEETVSSGQDDKVEPDE | 54600
LWPLPVITRYIIGISLLVSMLNFMGLLHLKCSSPSYVIHRLEIANLLMSPFLF | 46200

Sequence | transcriptional activation domain activity
LWQYMEFRILVYIFFGLSFIPLSIFLLFCTCLSSFIFFVAAGIWLFVGTIAFF | 54200
LWQYMEFRIMIYLFLALCFIPISIFVIFCSCLSSILFMISAGIWIFFGTIAFL | 51200
LWSHSILILACLIPYLVLRCSTYYCYQAISYIDSNDLAWSNVSIRFDVAMLVV | 69200
LWTCLLITLILPSPLFSSLFFPSPLFSFLLCLFFTFYLSFPSLFLSCPPPFAG | 51800
LWYIGSFVTNGLVNVVGVWKICKLWSIWVRVAFTYMFMCFILFRALALHRIFI | 59200
LWYRFQVVMIRRYHFHFHLLGYRMTYLRFIQFLNIWYFFIAIACLLFIIVIGA | 46300
LYAWLSFFWVLVYVYFFSITVYLVVKGSRSILDLSHGSPSPLLTGSLFACLVW | 58700
LYECLKYMLFTFAGSTHTNYMAYLLETIINLELESSPGLKEALLLCLLINLTG | 48700
LYEHLDEDHRLLWSYLSRLGSYVFQPEIPDLTLYLSELKTVIRCFLNQLIKIS | 56700
LYFLLLLSPLCIGLVSVLCCHIGFIFLFLFFLLQSYQVSYLLLFMYIRFFLCM | 42300
LYFLRPEVLPDRYAFTIPAISFLGTNDYPVLVPDLFLLLTSSFWSPTLLWFFT | 55600
LYFMPVRWYTYHKIGFHYFLADLCYFVNFLMVLCIWFFPNSKRLFISTFCLAF | 72000
LYFTCNERVGACPPSFEYIYDTFFASVTSQEFWRSLFDLEAFYMYLGWYAFCV | 65600
LYHALRLCLKFFVVSLVADPEFQRELDYFMKNKPWFIRWPAVFSLNMVWNYTK | 42600
LYILLVFPILLLMMLHSLVTFLYVRAIDPLYGSVPINLHLDKIVWVATFAGAF | 63200
LYIVRLRFVHHFRINTAFVEACQLSIPPFVSVSLVSLAIAVFLNCVGHHFAAF | 39400
LYKSYKHAFHDWIYRLYYYLYHCLVELGLSSAAVDIFRACLPSVKMGNIALTY | 63000
LYLCLVILFKRCIIGGFKAGPRRHDQVTLMRYWFMEKLLPPGENLQGVASILG | 16200
LYLLIFFPVLLWRYLCIGLDSVLCCHIGFHFPYFMCYFFAIMSVSRSFFIHVY | 67200
LYLLIFFPVLLWRYLCIGLDSVLCCHIGFHFPYFMCYFFAIMSVSRSFFYSCI | 50700
LYLLVEILLLATYAVNYNVQYIVLETVTPIAVSSCLVPHTRFLFRLILFIQGL | 63200

Sequence | transcriptional activation domain activity
LYLRLLVGYLFMILVLLCSHNMMIFLLRSLHHLLTFLTCPLHFFLLLLLLMIT | 39000
LYLSLLKRKTTIWFFVYVVLQNYFLSTLYGRNWFFLFSSQHAPTWSIWLLAFI | 57300
LYLSVLYIIVFTFLPGYTFIFTLTYGYGFAARGLSFLALGVGFLSSLILVIPV | 46500
LYMLKIVNWAVLYASLILATLLWCTIFIIYRILKVGGVTAGMRAYHRVIELLV | 83500
LYNTLFLQLSAIAREFNFPSAAGLCCYMNFSDNGSIFAPRITDDAWIILWRRY | 71800
LYPQDLVSSPAMSHLTANNDDFDDLLSVASMNSNYLLPVNSHGYKHISNLDEL | 69100
LYSIFSLLSIRFFILYSVYVFFFFIGALGGGMLYGLFFFFFFDEVIWYSFFLS | 35400
LYSRYCLLLICIFFVTLQFTTVRFTVRSFYFNTLSFFYLSFWCPQIYRNIMRN | 53600
LYSVCSILLLVVRLFKQLPRQYCSWRVVYTQKLWISITICFTLMRFSFSRDHT | 51100
LYVIIFPILYFSLLLFYFFSSCGGVGWWAVGWHGVLCFFVLLGWVGLGGCCLC | 35900
LYVSLHAVVGNVAEFYFVRYGLALVCALCQTIMFQVTSVTLNGRIGLFFLIAT | 45400
LYYMECSFFRLIIRWIPHWLFLSVKADHVILPLPNHPVGAIIGPNLFCIFLHI | 50900
LYYTAPFNLQPYISYVGCGLVCLVLFFNGFWIFFPGQFSVANLFTSYFAPVFF | 65000
LYYTVIRLFHIYPCRDPLAANSTTFNKSLYLVWSFLCMLVYLAHISYLTLLPR | 54100
MAAAPAAKACAQCNKAETVSGGSDGEEGSSNLHPCNMCKSVLYCSRDCKKAHG | 8830
MAAGFFFFFFLLSFPLFLSFFFCFPFFFSLPSGISFCLPFAPGVVSSFPFPTR | 53800
MAAIDHDKVAKFVGGNSLDKATPGDVTDFVRKNGGHTVITKVLIANNGIAAVK | 45000
MAALGGGKYFVCMLTQIVVNFCFLLSVPFSSPPLLLPCYLIIRYSFSFFLFCL | 64700
MAALLWVLAVCLWIHPLSILAFTFHSVEGFKLVREILLDVLPTFDPHSYQIDG | 53200
MAAPPFLWTLFFFLFSILLLLSHTYFFLLLLACFFRFWFFYCSFYFSFDFLSS | 37900
MAASDGPSPKKRKFARAVNTCAPCARRKVKCDRESHAPCSNCRKRRETALCEP | 9660

Sequence | transcriptional activation domain activity
MACCNQTWLYIPTNYYFAFLMFGISIVHVLFIQNQGFSRVIFFLFFAWDLFVS | 84600
MACLFPCMLIFIFLLFISSFFLCFFHSLVSHLPHCVLVLFFISFLLTILTFFF | 50200
MACLVSGIGWCLLYFTCMYLLLIYYILSLFYPPLASCNSFSFFFLSFFFFAGR | 59100
MADACGSNPGGKSVKDVRAEQESKRARGALSCAECRRLKLRCDKRVPCSSCQR | 25400
MADAITESTAKLQLDEETGEMVSKGELKKRLAKRAKKAAQAKAKAEAPAPLAT | 36300
MADALAENTAKLQLDEETGEMVSKGELKKRMAKRAKKAAAAKAKAEVPATTSA | 20400
MADATATGSTPPQAPLPEPKRHAACDECRLRKLKCSGTRPACERCAREHIACV | 40100
MADAVADAAANLKLEEGAAENAPKLQLDEETGEWVSKGELKKRLAKRAKKASK | 14100
MADAVAEGTAKLQLDEETGEMVSKGELKKRLQKRAKKAAQAKAKADAPAPSAA | < 6570
MADEEGASPRELILEACRRNNTSLLEETLADLASSASKAKQDPTGYVAKTLNE | 42600
MADEHAAHRRKRARLACLACNARRVKCNVAECRPCHNCAAANVPCETRESRRG | 38300
MADENNTAAAVGERNVPRQKQKRVFQTRARTGCQRCRARRRKCDEAKPRCARC | 35200
MADFVSIWLVVVVDYHFYIYIVFAREQLFRHFCLVSSALAVGLSLFWLMLCFG | 68200
MADPQEDNTAPGTKRRRLRGSCDKCKQRKIRCDSSEMPGNRCSNCIAFSSECT | 31600
MADQPQGRKPNNRRPRHRGRGGGAGGGGNGGGNGGGEDGGNEGGRGGRRGGRG | 33900
MADRGTGAGGEGRGRGGFGRGGRGRGGPRGRGGRGGRGGRKDEEKEWVPVTKL | 24800
MADTSTDGGPERTPVAAPISIKACDQCRARKVRCDKTSPCANCRKHNVKCTTS | 19000
MADTTDPPAPRKRGRPPKNKEGGATAKPVTLGPDGLPRKRGRPRKNPVVEVAT | 20300
MADVSSARINIDRAKQGRGLGRVATAGCSRDRILLIRSSHSVWRAACHLWAVP | 60500
MAEADQSSHHQPEPRRTHRKSRNGCVTCKQRRVKCDEGRPTCQKCSFGNRPCS | 41900

From the supplement of paper PMC12636428
